Test results as given in the RNAGym collection of RNA variant scans (doi:10.1021/acssynbio.7b00057).

B1: Pistol ribozyme (parent)
chain: GGGUCGUUGUUCCAUAAUCGCGUGGAUAUGGCACGCAAGUUUCUACCGGGCACCGUAAAUGUCCGACUGGAGCCGUUCGGGCGGCUAUAAACAGACCUCAGGCCCGAAGCGUGGCGGCACCUGCCGCCGGUGGUAAAAAAGAUCGGAAGAGCACACGUCU

Variants of: B1
Experiment: aptazyme ON/OFF ratio, guanine; higher = stronger switching; co-transcriptional cleavage with and without guanine

Row | Variant | aptazyme ON/OFF ratio
1 | GGGUCGUGCUCUAAUAAUCGCGUGGAUAUGGCACGCAAGUUUCUACCGGGCACCGUAAAUGUCCGACUGGAGCCGUUCGGGCGGCUAUAAACAGACCUCAGGCCCGAAGCGUGGCGGCACCUGCCGCCGGUGGUAAAAAAGAUCGGAAGAGCACACGUCU | 1.03
2 | GGGUCGUGCUCUUAUAAUCGCGUGGAUAUGGCACGCAAGUUUCUACCGGGCACCGUAAAUGUCCGACUGGAGCCGUUCGGGCGGCUAUAAACAGACCUCAGGCCCGAAGCGUGGCGGCACCUGCCGCCGGUGGUAAAAAAGAUCGGAAGAGCACACGUCU | 1.04
3 | GGGUCGUGCUCUGAUAAUCGCGUGGAUAUGGCACGCAAGUUUCUACCGGGCACCGUAAAUGUCCGACUGGAGCCGUUCGGGCGGCUAUAAACAGACCUCAGGCCCGAAGCGUGGCGGCACCUGCCGCCGGUGGUAAAAAAGAUCGGAAGAGCACACGUCU | 1.03
4 | GGGUCGUGCUAAAAUAAUCGCGUGGAUAUGGCACGCAAGUUUCUACCGGGCACCGUAAAUGUCCGACUGGAGCCGUUCGGGCGGCUAUAAACAGACCUCAGGCCCGAAGCGUGGCGGCACCUGCCGCCGGUGGUAAAAAAGAUCGGAAGAGCACACGUCU | 1.07
5 | GGGUCGUGCUAAGAUAAUCGCGUGGAUAUGGCACGCAAGUUUCUACCGGGCACCGUAAAUGUCCGACUGGAGCCGUUCGGGCGGCUAUAAACAGACCUCAGGCCCGAAGCGUGGCGGCACCUGCCGCCGGUGGUAAAAAAGAUCGGAAGAGCACACGUCU | 1.05
6 | GGGUCGUGCUAAUAUAAUCGCGUGGAUAUGGCACGCAAGUUUCUACCGGGCACCGUAAAUGUCCGACUGGAGCCGUUCGGGCGGCUAUAAACAGACCUCAGGCCCGAAGCGUGGCGGCACCUGCCGCCGGUGGUAAAAAAGAUCGGAAGAGCACACGUCU | 1.06
7 | GGGUCGUGCUAUAAUAAUCGCGUGGAUAUGGCACGCAAGUUUCUACCGGGCACCGUAAAUGUCCGACUGGAGCCGUUCGGGCGGCUAUAAACAGACCUCAGGCCCGAAGCGUGGCGGCACCUGCCGCCGGUGGUAAAAAAGAUCGGAAGAGCACACGUCU | 1.03
8 | GGGUCGUGCUAUUAUAAUCGCGUGGAUAUGGCACGCAAGUUUCUACCGGGCACCGUAAAUGUCCGACUGGAGCCGUUCGGGCGGCUAUAAACAGACCUCAGGCCCGAAGCGUGGCGGCACCUGCCGCCGGUGGUAAAAAAGAUCGGAAGAGCACACGUCU | 1.1
9 | GGGUCGUGCUAUGAUAAUCGCGUGGAUAUGGCACGCAAGUUUCUACCGGGCACCGUAAAUGUCCGACUGGAGCCGUUCGGGCGGCUAUAAACAGACCUCAGGCCCGAAGCGUGGCGGCACCUGCCGCCGGUGGUAAAAAAGAUCGGAAGAGCACACGUCU | 1.06
10 | GGGUCGUGCUGAGAUAAUCGCGUGGAUAUGGCACGCAAGUUUCUACCGGGCACCGUAAAUGUCCGACUGGAGCCGUUCGGGCGGCUAUAAACAGACCUCAGGCCCGAAGCGUGGCGGCACCUGCCGCCGGUGGUAAAAAAGAUCGGAAGAGCACACGUCU | 1.05
11 | GGGUCGUGCUGAAAUAAUCGCGUGGAUAUGGCACGCAAGUUUCUACCGGGCACCGUAAAUGUCCGACUGGAGCCGUUCGGGCGGCUAUAAACAGACCUCAGGCCCGAAGCGUGGCGGCACCUGCCGCCGGUGGUAAAAAAGAUCGGAAGAGCACACGUCU | 1.08
12 | GGGUCGUGCUGAUAUAAUCGCGUGGAUAUGGCACGCAAGUUUCUACCGGGCACCGUAAAUGUCCGACUGGAGCCGUUCGGGCGGCUAUAAACAGACCUCAGGCCCGAAGCGUGGCGGCACCUGCCGCCGGUGGUAAAAAAGAUCGGAAGAGCACACGUCU | 1.08
13 | GGGUCGUGCUCGCAUAAUCGCGUGGAUAUGGCACGCAAGUUUCUACCGGGCACCGUAAAUGUCCGACUGGAGCCGUUCGGGCGGCUAUAAACAGACCUCAGGCCCGAAGCGUGGCGGCACCUGCCGCCGGUGGUAAAAAAGAUCGGAAGAGCACACGUCU | 1.04
14 | GGGUCGUGCUCACAUAAUCGCGUGGAUAUGGCACGCAAGUUUCUACCGGGCACCGUAAAUGUCCGACUGGAGCCGUUCGGGCGGCUAUAAACAGACCUCAGGCCCGAAGCGUGGCGGCACCUGCCGCCGGUGGUAAAAAAGAUCGGAAGAGCACACGUCU | 1.05
15 | GGGUCGUGCUCUCAUAAUCGCGUGGAUAUGGCACGCAAGUUUCUACCGGGCACCGUAAAUGUCCGACUGGAGCCGUUCGGGCGGCUAUAAACAGACCUCAGGCCCGAAGCGUGGCGGCACCUGCCGCCGGUGGUAAAAAAGAUCGGAAGAGCACACGUCU | 1.04
16 | GGGUCGUGCUCAAAUAAUCGCGUGGAUAUGGCACGCAAGUUUCUACCGGGCACCGUAAAUGUCCGACUGGAGCCGUUCGGGCGGCUAUAAACAGACCUCAGGCCCGAAGCGUGGCGGCACCUGCCGCCGGUGGUAAAAAAGAUCGGAAGAGCACACGUCU | 1.04
17 | GGGUCGUGCUCAGAUAAUCGCGUGGAUAUGGCACGCAAGUUUCUACCGGGCACCGUAAAUGUCCGACUGGAGCCGUUCGGGCGGCUAUAAACAGACCUCAGGCCCGAAGCGUGGCGGCACCUGCCGCCGGUGGUAAAAAAGAUCGGAAGAGCACACGUCU | 1.04
18 | GGGUCGUGCUCAUAUAAUCGCGUGGAUAUGGCACGCAAGUUUCUACCGGGCACCGUAAAUGUCCGACUGGAGCCGUUCGGGCGGCUAUAAACAGACCUCAGGCCCGAAGCGUGGCGGCACCUGCCGCCGGUGGUAAAAAAGAUCGGAAGAGCACACGUCU | 1.04

Row | Variant | aptazyme ON/OFF ratio
19 | GGGUCGUGCUCGAAUAAUCGCGUGGAUAUGGCACGCAAGUUUCUACCGGGCACCGUAAAUGUCCGACUGGAGCCGUUCGGGCGGCUAUAAACAGACCUCAGGCCCGAAGCGUGGCGGCACCUGCCGCCGGUGGUAAAAAAGAUCGGAAGAGCACACGUCU | 1.03
20 | GGGUCGUGCUCGGAUAAUCGCGUGGAUAUGGCACGCAAGUUUCUACCGGGCACCGUAAAUGUCCGACUGGAGCCGUUCGGGCGGCUAUAAACAGACCUCAGGCCCGAAGCGUGGCGGCACCUGCCGCCGGUGGUAAAAAAGAUCGGAAGAGCACACGUCU | 1.05
21 | GGGUCGUGCUCGUAUAAUCGCGUGGAUAUGGCACGCAAGUUUCUACCGGGCACCGUAAAUGUCCGACUGGAGCCGUUCGGGCGGCUAUAAACAGACCUCAGGCCCGAAGCGUGGCGGCACCUGCCGCCGGUGGUAAAAAAGAUCGGAAGAGCACACGUCU | 1.04
22 | GGGUCGUGCUAGGAUAAUCGCGUGGAUAUGGCACGCAAGUUUCUACCGGGCACCGUAAAUGUCCGACUGGAGCCGUUCGGGCGGCUAUAAACAGACCUCAGGCCCGAAGCGUGGCGGCACCUGCCGCCGGUGGUAAAAAAGAUCGGAAGAGCACACGUCU | 1.1
23 | GGGUCGUGCUAGAAUAAUCGCGUGGAUAUGGCACGCAAGUUUCUACCGGGCACCGUAAAUGUCCGACUGGAGCCGUUCGGGCGGCUAUAAACAGACCUCAGGCCCGAAGCGUGGCGGCACCUGCCGCCGGUGGUAAAAAAGAUCGGAAGAGCACACGUCU | 1.08
24 | GGGUCGUGCUAGUAUAAUCGCGUGGAUAUGGCACGCAAGUUUCUACCGGGCACCGUAAAUGUCCGACUGGAGCCGUUCGGGCGGCUAUAAACAGACCUCAGGCCCGAAGCGUGGCGGCACCUGCCGCCGGUGGUAAAAAAGAUCGGAAGAGCACACGUCU | 1.07
25 | GGGUCGUGCUGCCAUAAUCGCGUGGAUAUGGCACGCAAGUUUCUACCGGGCACCGUAAAUGUCCGACUGGAGCCGUUCGGGCGGCUAUAAACAGACCUCAGGCCCGAAGCGUGGCGGCACCUGCCGCCGGUGGUAAAAAAGAUCGGAAGAGCACACGUCU | 1.14
26 | GGGUCGUGCUCCCAUAAUCGCGUGGAUAUGGCACGCAAGUUUCUACCGGGCACCGUAAAUGUCCGACUGGAGCCGUUCGGGCGGCUAUAAACAGACCUCAGGCCCGAAGCGUGGCGGCACCUGCCGCCGGUGGUAAAAAAGAUCGGAAGAGCACACGUCU | 1.03
27 | GGGUCGUGCUAGCAUAAUCGCGUGGAUAUGGCACGCAAGUUUCUACCGGGCACCGUAAAUGUCCGACUGGAGCCGUUCGGGCGGCUAUAAACAGACCUCAGGCCCGAAGCGUGGCGGCACCUGCCGCCGGUGGUAAAAAAGAUCGGAAGAGCACACGUCU | 1.07
28 | GGGUCGUGCUAUCAUAAUCGCGUGGAUAUGGCACGCAAGUUUCUACCGGGCACCGUAAAUGUCCGACUGGAGCCGUUCGGGCGGCUAUAAACAGACCUCAGGCCCGAAGCGUGGCGGCACCUGCCGCCGGUGGUAAAAAAGAUCGGAAGAGCACACGUCU | 1.05
29 | GGGUCGUGCUCCUAUAAUCGCGUGGAUAUGGCACGCAAGUUUCUACCGGGCACCGUAAAUGUCCGACUGGAGCCGUUCGGGCGGCUAUAAACAGACCUCAGGCCCGAAGCGUGGCGGCACCUGCCGCCGGUGGUAAAAAAGAUCGGAAGAGCACACGUCU | 1.03
30 | GGGUCGUGCUCCGAUAAUCGCGUGGAUAUGGCACGCAAGUUUCUACCGGGCACCGUAAAUGUCCGACUGGAGCCGUUCGGGCGGCUAUAAACAGACCUCAGGCCCGAAGCGUGGCGGCACCUGCCGCCGGUGGUAAAAAAGAUCGGAAGAGCACACGUCU | 1.04
31 | GGGUCGUGCUCCAAUAAUCGCGUGGAUAUGGCACGCAAGUUUCUACCGGGCACCGUAAAUGUCCGACUGGAGCCGUUCGGGCGGCUAUAAACAGACCUCAGGCCCGAAGCGUGGCGGCACCUGCCGCCGGUGGUAAAAAAGAUCGGAAGAGCACACGUCU | 1.06
32 | GGGUCGUGCUGACAUAAUCGCGUGGAUAUGGCACGCAAGUUUCUACCGGGCACCGUAAAUGUCCGACUGGAGCCGUUCGGGCGGCUAUAAACAGACCUCAGGCCCGAAGCGUGGCGGCACCUGCCGCCGGUGGUAAAAAAGAUCGGAAGAGCACACGUCU | 1.11
33 | GGGUCGUGCUGGCAUAAUCGCGUGGAUAUGGCACGCAAGUUUCUACCGGGCACCGUAAAUGUCCGACUGGAGCCGUUCGGGCGGCUAUAAACAGACCUCAGGCCCGAAGCGUGGCGGCACCUGCCGCCGGUGGUAAAAAAGAUCGGAAGAGCACACGUCU | 1.15
34 | GGGUCGUGCUACAAUAAUCGCGUGGAUAUGGCACGCAAGUUUCUACCGGGCACCGUAAAUGUCCGACUGGAGCCGUUCGGGCGGCUAUAAACAGACCUCAGGCCCGAAGCGUGGCGGCACCUGCCGCCGGUGGUAAAAAAGAUCGGAAGAGCACACGUCU | 1.04
35 | GGGUCGUGCUACUAUAAUCGCGUGGAUAUGGCACGCAAGUUUCUACCGGGCACCGUAAAUGUCCGACUGGAGCCGUUCGGGCGGCUAUAAACAGACCUCAGGCCCGAAGCGUGGCGGCACCUGCCGCCGGUGGUAAAAAAGAUCGGAAGAGCACACGUCU | 1.05
36 | GGGUCGUGCUACGAUAAUCGCGUGGAUAUGGCACGCAAGUUUCUACCGGGCACCGUAAAUGUCCGACUGGAGCCGUUCGGGCGGCUAUAAACAGACCUCAGGCCCGAAGCGUGGCGGCACCUGCCGCCGGUGGUAAAAAAGAUCGGAAGAGCACACGUCU | 1.03
